From the supplement of paper PMC11780869 come the findings set out here.

The data set relates to Bacillus subtilis. The data set is described as follows: cleaved RNA product abundance (RNA/gDNA barcode ratio) relative to median wild-type variant (ratio to wild type); higher = more accumulation of the downstream cleavage product. In a few lines: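 Reporter mRNAs based on truncated aprE or tetM carried barcoded, mutagenized RNase Y cleavage-site windows built from oligos with a 9% error rate and were integrated into the B. subtilis chromosome. Cultures grew in LB at 37°C from OD600 0.0003 to 0.3. Cleaved RNA was gel-selected, reverse transcribed and barcode-sequenced together with genomic DNA barcodes, and UMIs were collapsed. Cleaved product abundance is the per-construct ratio of RNA to gDNA barcodes, scaled to the median of constructs carrying the unmutated site.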

Where [1] appears, read: experiment (reporter, strain, medium): exp 4a: truncated aprE reporter, strain BJT201 with 2% xylose (RNase J1 expressed), cleavage site: cggR-gapA (positions -7 to +36 mutated).
Where [2] appears, read: experiment (reporter, strain, medium): exp 2b: truncated aprE reporter, strain BJT200, cleavage site: cggR-gapA (positions -7 to +36 mutated).
Setting [3] is: experiment (reporter, strain, medium): exp 8a: truncated aprE reporter, strain BJT201 with 2% xylose (RNase J1 expressed), cleavage site: glnRA (positions -5 to +31 mutated).

For “ACAGACGAAGGAGCCGCAAAGCAGTTATTAATGGATGAATAATCCCTCAATATAAATATCTCTCACTTATTTAAA”, under setting [1], the “cleaved RNA product abundance” value is 0.171. As for “ACAGACGAAGGAGCCGCAAAGAAGTTATTAATGGATGAATAATCCCTCAATATACATATCTCTCACTTATTTAAA”, the “cleaved RNA product abundance” value is 0.157 under setting [2] and 0.165 under setting [1]. As to “CGACATGTCCCGCTTCTTTCATTAATCCGTTAGCAACTATTTTGCTATATACATTTACTTTTTAAGAGGAGGAAT”, the “cleaved RNA product abundance” value under setting [3] was determined as 1.55. Still for that read-out and setting: as for “CGACATGTCCCGCTTCTTTCATTAATCCGTTAGCAACTGTTTTGCTATATACATTTACTTTTTAAGAGGAGGAAT”, the figure is 1.23. Consider “ACAGACGAAGGAGCCGCAAAGTAGTTAATAAGGGATGAATAATCCCTCAATATAAATATCTCTCACTTATTTAAA”, for which the “cleaved RNA product abundance” value under setting [2] was determined as 0.292 and the “cleaved RNA product abundance” value under setting [1] turned out to be 0.433. For “ACAGACGAAGGAGCCGCAAAGAAGTTATTAAGGGATGAATAATCCCTCACTATATATATCTCTCACTTATTTAAA”, the “cleaved RNA product abundance” value under setting [1] was 0.319.

Turning to “ACAGACGAAGGAGCCGCAAAGAAGTTATTACGGGATGAATAATCCCTCAATATAAATCTCTCTCACTTATTTAAA”, the “cleaved RNA product abundance” value under setting [1] came to 0.368.

Turning to “CGACATGTCCCGCTTCTTTCATTAATCCGTTAACAACTGTTTTGCTATATACATTTAACTTTTAAGAGGAGGAAT”, the “cleaved RNA product abundance” value under setting [3] worked out at 0.24. As for “ACAGACGAAGGAGCCGCAAAGAAGTTATTAAGGGATGAAAAATCGCTCAATATAAATATCTCTCACTTATTTAAA”, under setting [1], the “cleaved RNA product abundance” value is 0.0823. On the same count and under the same terms, to “ACAGACGAAGGAGCCGCAAAGAAATTATTAAGGGATGAATAATCCCTCAATATAACTATCTCTCACTTATTTAAA” belongs 0.325; to “ACAGACGAAGGAGCCGCAAAGAAGTTATTAAGGGATGAATAATCCATCAATTTAAATATCTCTCACTTATTTAAA”, 0.13. On the same count and under the same terms, to “ACAGACGAAGGAGCCGCAAAGAAGTTAGTAAGGGATGAATAATCCCTTAATATAAATATCTCTCACTTATTTAAA” belongs 0.724; to “ACAGACGAAGGAGCCGCAAAGAAGTTATTAAGGGATGAATAATGCCTCAAAATAAATATCTCTCACTTATTTAAA”, 0.173. As for “ACAGACGAAGGAGCCGCAAAGAAGTTATTAAGGGATGAATAATCTCTCAATATAAATAACTCTCACTTATTTAAA”, the “cleaved RNA product abundance” value under setting [2] turned out to be 0.645. For “ACAGACGAAGGAGCCGCAAAGAAGTTATTAAGGGATGAACAATCCTTCAATATAAATATCTCTCACTTATTTAAA”, under setting [1], the “cleaved RNA product abundance” value came to 0.58. The same measure, in the same setting: as for “ACAGACGAAGGAGCCGCAAAGAAGTTACTAAGGGATGAATAAACCCTCAATATAAATATCTCTCACTTATTTAAA”, the figure is 0.14; as for “ACAGACGAAGGAGCCGCAAAGAAGATATTAAGGGATGAATAATCCCTGAATATAAATATCTCTCACTTATTTAAA”, 0.583. Turning to “ACAGACGAAGGAGCCGCGAAGAAGTTATTAAGGGATGAATAATCCCTCAATATAAATAACTCTCACTTATTTAAA”, the “cleaved RNA product abundance” value runs as follows: under setting [2], 1.05; under setting [1], 0.969. In the case of “CGACATGTCCCGCTTCTTTCATTACTCCGTTAACAACTGTTTTGCTATATACATTTACCTTTTAAGAGGAGGAAT”, the “cleaved RNA product abundance” value under setting [3] turned out to be 0.261. On the same count and under the same terms, to “CGACATGTCCCGCTTCTTTCATTAATCCGTTTGCAACTGTTTTACTATATACATTTACCTTTTAAGAGGAGGAAT” belongs 0.879. Take “CGACATGTCCCGCTTCTTTCATTACTCCGTTAGCAACTGTTTTGCTATATACATTTACCGTTTAAGAGGAGGAAT”: the “cleaved RNA product abundance” value under setting [3] is 1.01. Turning to “ACAGACGAAGGAGCCGCAATGAACTTATTAAGGGATGAATAATCCCTCAATATAAATATCTCTCACTTATTTAAA”, under setting [1], the “cleaved RNA product abundance” value was 0.405. The same measure, in the same setting: to “ACAGACGAAGGAGCCGCAAAGAAGTTATTAAGCGATGAATAATCACTCAATATAAATATCTCTCACTTATTTAAA” belongs 0.101. Consider “CGACATGTCCCGCTTCTTTCATTAATATGTTAGCAACTGTTTTGCTATATACATTTACCTTTTAAGAGGAGGAAT”, for which the “cleaved RNA product abundance” value under setting [3] was 0.819. As for “ACAGACGAAGGAGCCGCATAGAAGTAATTAAGGGATGAATAATCCCTCAATATAAATATCTCTCACTTATTTAAA”, under setting [1], the “cleaved RNA product abundance” value came out at 0.356. In the case of “CGACATGTCCCGCTTCTTTCATTAATCCGTTAGCAAGTGTTTTGCTAAATACATTTACCTTTTAAGAGGAGGAAT”, under setting [3], the “cleaved RNA product abundance” value was determined as 0.596. “ACAGACGAAGGAGCCGCAAAGAAGTTATTAATGGATGAATAATCCCTCAATATAACTATCTCTCACTTATTTAAA”: the “cleaved RNA product abundance” value under setting [1] came to 0.072. Consider “ACAGACGAAGGAGCCGCAAAGAAGTTATTAAGCGATGAATAATCCTTCAATATAAATATCTCTCACTTATTTAAA”, for which the “cleaved RNA product abundance” value was 0.0918 under setting [2] and 0.119 under setting [1]. On the same counts, the results for “ACAGACGAAGGAGCCGCAAAGAAGTTATTAATGGATGAATAATCCCTCAATATAAATAACTCTCACTTATTTAAA” are 0.115 and 0.23. As for “CGACATGTCCCGCTTCTTTCATTACTCCGTTAGTAACGGTTTTGCTATATACATTTACCTTTTAAGAGGAGGAAT”, under setting [3], the “cleaved RNA product abundance” value turned out to be 0.281. Still for that read-out and setting: as for “CGACATGTCCCGCTTCTTTCATTAATCCGTCAGCAACTGTATTGCTATATACATTTACCTTTTAAGAGGAGGAAT”, the figure is 0.214. In the case of “ACAGACGAAGGAGCCGCAACGAAGTTATTAAGGTATGAATAATCCCTCAATATAAATATCTCTCACTTATTTAAA”, under setting [1], the “cleaved RNA product abundance” value stood at 0.0862. Take “CGACATGTCCCGCTTCTTTCATTAATCCGTTAGCAACTGTTTTGCTATATACCTTCACCTTTTAAGAGGAGGAAT”: the “cleaved RNA product abundance” value under setting [3] was determined as 0.276. “CGACATGTCCCGCTTCTTTCATTAATCCCTTAGCAACTGTTTTGCTATATACATTTACATTTTAAGAGGAGGAAT”: the “cleaved RNA product abundance” value under setting [3] came out at 0.242. With “ACAGACGAAGGAGCCGCAAACAAGTTATTAAGGGATGAATAATCCCTCATTATAAATATCTCTCACTTATTTAAA”, under setting [1], the “cleaved RNA product abundance” value stood at 0.337. For the sequence “CGACATGTCCCGCTTCTTTCATTAATCCGTTAGCAACTGTTGTGCTATATATATTTACCTTTTAAGAGGAGGAAT”, the “cleaved RNA product abundance” value under setting [3] came to 0.736.

As to “ACAGACGAAGGAGCCGCAAAGAAGTTACTAAGGGATGAATAATCCCTCGATATAAATATCTCTCACTTATTTAAA”, the “cleaved RNA product abundance” value under setting [1] is 0.227.

For “CGACATGTCCCGCTTCTTTCATTATTCCGTTAGAAACTGTTTTGCTATATACACTTACCTTTTAAGAGGAGGAAT”, the “cleaved RNA product abundance” value under setting [3] came to 0.302. For the sequence “ACAGACGAAGGAGCCGCAAAGAAGTTATTAAGGGATGAAAAATCCCTCAATATAAAAATCTCTCACTTATTTAAA”, the “cleaved RNA product abundance” value under setting [2] was found to be 0.798 and the “cleaved RNA product abundance” value under setting [1] worked out at 0.692. For “ACAGACGAAGGAGCCGCAAAGAAGTTATTAAGGGATGTATAATCGCTCAATATAAATATCTCTCACTTATTTAAA”, under setting [1], the “cleaved RNA product abundance” value worked out at 0.173. Still for that read-out and setting: to “ACAGACGAAGGAGCCGCAAAGAACTTATTAAGGGATGAATAATCCCTCAACATAAATATCTCTCACTTATTTAAA” belongs 0.227.

Turning to “CGACATGTCCCGCTTCTTTCATTAATCCGTTATCAACTGTTTTGCTATATACATTTATCTTTTAAGAGGAGGAAT”, the “cleaved RNA product abundance” value under setting [3] turned out to be 0.347. As to “CGACATGTCCCGCTTCTTTCATTAATCCATTAGCAACTGTTTTGCTAAATACATTTACCTTTTAAGAGGAGGAAT”, under setting [3], the “cleaved RNA product abundance” value came out at 0.47. For the sequence “ACAGACGAAGGAGCCGCAAAGAAGTAATTAAGGTATTAATAATCCCTCAATATAAATATCTCTCACTTATTTAAA”, the “cleaved RNA product abundance” value under setting [1] stood at 0.0968.

As to “CGACATGTCCCGCTTCTTTCATTAATCCGTTAGCAACTGTTTTGCTTTATAAATTTACCTTTTAAGAGGAGGAAT”, under setting [3], the “cleaved RNA product abundance” value was found to be 0.385. Regarding “ACAGACGAAGGAGCCGCAAAGAAGTTATTATGAGATGAATAATCCCTCAATATAAATATCTCTCACTTATTTAAA”, the “cleaved RNA product abundance” value runs as follows: under setting [2], 0.0958; under setting [1], 0.147. “CGACATGTCCCGCTTCTTTCATTAATCCGTGAGCAACTGTTTTGCTATATACATTTACCTTTTAAGAGGAGGAAT”: the “cleaved RNA product abundance” value under setting [3] was 0.549. As for “ACAGACGAAGGAGCCGCAAAGAAATTATTAAGGGCTGAATAATCCCTCAATATAAATATCTCTCACTTATTTAAA”, the “cleaved RNA product abundance” value under setting [1] was 0.498. For “CGACATGTCCCGCTTCTTTCATTAATCCGTTAGAAACTGTTTTGCTAGATACATTTACCTTTTAAGAGGAGGAAT”, the “cleaved RNA product abundance” value under setting [3] worked out at 0.255. Same read-out and setting: as for “CGACATGTCCCGCTTCTTTCATTAATCCGTTAGCAATTGTTTTGCTATATACATTCACCTTTTAAGAGGAGGAAT”, the figure is 0.849. Take “ACAGACGAAGGAGCCGCAAATAAGTTATTAAGGGATGAATAGTCCCTCAATATAAATATCTCTCACTTATTTAAA”: the “cleaved RNA product abundance” value is, setting by setting: under setting [2], 0.852; under setting [1], 0.887. With “CGACATGTCCCGCTTCTTTCATTATTCCGTTAGCAACTGTTTTGCTATATACTTTTACCTTTTAAGAGGAGGAAT”, under setting [3], the “cleaved RNA product abundance” value amounted to 0.815. As to “ACAGACGAAGGAGCCGCATAGAAGTTATTTAGGGATGAATAATCCCTCAATATAAATATCTCTCACTTATTTAAA”, the “cleaved RNA product abundance” value under setting [1] was 0.962. On to “ACAGACGAAGGAGCCGCAAATACGTTATTAAGGGATGAATAATCCCTCAATATAAATATCTCTCACTTATTTAAA”, for which, under setting [1], the “cleaved RNA product abundance” value was 0.984.

As for “ACAGACGAAGGAGCCGCAAAAAAGTTATTAAGGGATCAATAATCCCTCAATATAAATATCTCTCACTTATTTAAA”, the “cleaved RNA product abundance” value is 0.923 under setting [2] and 0.712 under setting [1]. Consider “CGACATGTCCCGCTTCTTTCATTAATGCGTTAGCAACTATTTTGCTATATACATTTACCTTTTAAGAGGAGGAAT”, for which, under setting [3], the “cleaved RNA product abundance” value is 1.28. For the sequence “ACAGACGAAGGAGCCGCAAAGAAGTCATTAAGGTATGAATAATCCCTCAATATAAATATCTCTCACTTATTTAAA”, the “cleaved RNA product abundance” value under setting [2] amounted to 0.0941.
